# Source: the RNAGym collection of RNA variant scans (doi:10.7554/elife.80360)
# B1: HDV Ribozyme (parent)
# chain: GGCCGGCAUGGUCCCAGCCUCCUCGCUGGCGCCGGCUGGGCAACAUUCCGAGGGGACCGUCCCCUCGGUAAUGGCGAAUGGGACCCA
# Variants of: B1
# Assay: self-cleavage, relative activity (ratio to wild type); higher = more cleavage; co-transcriptional
row,Variant,self-cleavage
1,GGCCGGCAUGGUCCCAGCCUCCUCGCUGGCGCCGGCUGGGCAACAUUCCGAGGGGACCGUCCCCUCGGUAAGGGCGAAUGGUACCCA,0
2,GGCCGGCAUGGUCCCAGCCUCCUCGCUGGCGCCGGCUGGGCAACAUUCCGAGGGGACCGUCCCCUCGGUAAAGGCGAAUGGGACCCA,0.698
3,GGCCGGCAUGGUCCCAGCCUCCUCGCUGGCGCCGGCUGGGCAACAUUCCGAGGGGACCGUCCCCUCGGUAAGGGCGAAUGGGACCCA,0.662
4,GGCCGGCAUGGUCCCAGCCUCCUCGCUGGCGCCGGCUGGGCAACAUUCCGAGGGGACCGUCCCCUCGGUAACGGCGAAUGGGACCCA,0.589
5,GGCCGGCAUGGUCCCAGCCUCCUCGCUGGCGCCGGCUGGGCAACAUUCCGAGGGGACCGUCCCCUCGGUAACGGCGAAGGGGACCCA,0.133
6,GGCCGGCAUGGUCCCAGCCUCCUCGCUGGCGCCGGCUGGGCAACAUUCCGAGGGGACCGUCCCCUCGGUAAGGGCGAAUCGGACCCA,0.26
7,GGCCGGCAUGGUCCCAGCCUCCUCGCUGGCGCCGGCUGGGCAACAUUCCGAGGGGACCGUCCCCUCGGUAACGGCGAAUGGGAGCCA,0.369
8,GGCCGGCAUGGUCCCAGCCUCCUCGCUGGCGCCGGCUGGGCAACAUUCCGAGGGGACCGUCCCCUCGGUAACGGCGAAUGGGAACCA,0.166
9,GGCCGGCAUGGUCCCAGCCUCCUCGCUGGCGCCGGCUGGGCAACAUUCCGAGGGGACCGUCCCCUCGGUAAGGGCGAAUGCGACCCA,0.0791
10,GGCCGGCAUGGUCCCAGCCUCCUCGCUGGCGCCGGCUGGGCAACAUUCCGAGGGGACCGUCCCCUCGGUAAAGUCGAAUGGGACCCA,0.397
11,GGCCGGCAUGGUCCCAGCCUCCUCGCUGGCGCCGGCUGGGCAACAUUCCGAGGGGACCGUCCCCUCGGUAAUCGCGAAUGGGACCCG,0.454
12,GGCCGGCAUGGUCCCAGCCUCCUCGCUGGCGCCGGCUGGGCAACAUUCCGAGGGGACCGUCCCCUCGGUAAUCGCGAAUGGGACCCC,0.592
13,GGCCGGCAUGGUCCCAGCCUCCUCGCUGGCGCCGGCUGGGCAACAUUCCGAGGGGACCGUCCCCUCGGUAACGGCGAAUGGGACCGA,0.277
14,GGCCGGCAUGGUCCCAGCCUCCUCGCUGGCGCCGGCUGGGCAACAUUCCGAGGGGACCGUCCCCUCGGUAAUCGUGAAUGGGACCCA,0.0755
15,GGCCGGCAUGGUCCCAGCCUCCUCGCUGGCGCCGGCUGGGCAACAUUCCGAGGGGACCGUCCCCUCGGUAAUCACGAAUGGGACCCA,0.422
16,GGCCGGCAUGGUCCCAGCCUCCUCGCUGGCGCCGGCUGGGCAACAUUCCGAGGGGACCGUCCCCUCGGUAAUCUCGAAUGGGACCCA,0.166
17,GGCCGGCAUGGUCCCAGCCUCCUCGCUGGCGCCGGCUGGGCAACAUUCCGAGGGGACCGUCCCCUCGGUAAGGCCGAAUGGGACCCA,0.237
18,GGCCGGCAUGGUCCCAGCCUCCUCGCUGGCGCCGGCUGGGCAACAUUCCGAGGGGACCGUCCCCUCGGUAAUCGCGGAUGGGACCCA,0.44
19,GGCCGGCAUGGUCCCAGCCUCCUCGCUGGCGCCGGCUGGGCAACAUUCCGAGGGGACCGUCCCCUCGGUAAUAGUGAAUGGGACCCA,0.119
20,GGCCGGCAUGGUCCCAGCCUCCUCGCUGGCGCCGGCUGGGCAACAUUCCGAGGGGACCGUCCCCUCGGUAAUAGGGAAUGGGACCCA,0.19
21,GGCCGGCAUGGUCCCAGCCUCCUCGCUGGCGCCGGCUGGGCAACAUUCCGAGGGGACCGUCCCCUCGGUAAAGGCGAAUGGGACCGA,0.674
22,GGCCGGCAUGGUCCCAGCCUCCUCGCUGGCGCCGGCUGGGCAACAUUCCGAGGGGACCGUCCCCUCGGUAAUCGCGAAUGAGACCCA,0.0817

row,Variant,self-cleavage
1,GGCCGGCAUGGUCCCAGCCUCCUCGCUGGCGCCGGCUGGGCAACAUUCCGAGGGGACCGUCCCCUCGGUAAUUGCGUAUGGGACCCA,0.0811
2,GGCCGGCAUGGUCCCAGCCUCCUCGCUGGCGCCGGCUGGGCAACAUUCCGAGGGGACCGUCCCCUCGGUAAUAGCAAAUGGGACCCA,0.665
3,GGCCGGCAUGGUCCCAGCCUCCUCGCUGGCGCCGGCUGGGCAACAUUCCGAGGGGACCGUCCCCUCGGUAAAGGCGACUGGGACCCA,0.125
4,GGCCGGCAUGGUCCCAGCCUCCUCGCUGGCGCCGGCUGGGCAACAUUCCGAGGGGACCGUCCCCUCGGUAAUAGCGAAUGGGACCAA,0.781
5,GGCCGGCAUGGUCCCAGCCUCCUCGCUGGCGCCGGCUGGGCAACAUUCCGAGGGGACCGUCCCCUCGGUAAGGGCGACUGGGACCCA,0.0831
6,GGCCGGCAUGGUCCCAGCCUCCUCGCUGGCGCCGGCUGGGCAACAUUCCGAGGGGACCGUCCCCUCGGUAAGGGCGAGUGGGACCCA,0.426
7,GGCCGGCAUGGUCCCAGCCUCCUCGCUGGCGCCGGCUGGGCAACAUUCCGAGGGGACCGUCCCCUCGGUAACGGCGAAUAGGACCCA,0.138
8,GGCCGGCAUGGUCCCAGCCUCCUCGCUGGCGCCGGCUGGGCAACAUUCCGAGGGGACCGUCCCCUCGGUAAGGGCUAAUGGGACCCA,0.646
9,GGCCGGCAUGGUCCCAGCCUCCUCGCUGGCGCCGGCUGGGCAACAUUCCGAGGGGACCGUCCCCUCGGUAAGGGCCAAUGGGACCCA,0.594
10,GGCCGGCAUGGUCCCAGCCUCCUCGCUGGCGCCGGCUGGGCAACAUUCCGAGGGGACCGUCCCCUCGGUAAGGGCGAAUGGGAUCCA,0.386
11,GGCCGGCAUGGUCCCAGCCUCCUCGCUGGCGCCGGCUGGGCAACAUUCCGAGGGGACCGUCCCCUCGGUAAUCGCGAAUAGGACCCA,0.284
12,GGCCGGCAUGGUCCCAGCCUCCUCGCUGGCGCCGGCUGGGCAACAUUCCGAGGGGACCGUCCCCUCGGUAUUGGCGAAGGGGACCCA,0.831
13,GGCCGGCAUGGUCCCAGCCUCCUCGCUGGCGCCGGCUGGGCAACAUUCCGAGGGGACCGUCCCCUCGGUAACGGCGAAUGGGACCCG,0.712
14,GGCCGGCAUGGUCCCAGCCUCCUCGCUGGCGCCGGCUGGGCAACAUUCCGAGGGGACCGUCCCCUCGGUAACGGCGAAUGGGACCCC,0.597
15,GGCCGGCAUGGUCCCAGCCUCCUCGCUGGCGCCGGCUGGGCAACAUUCCGAGGGGACCGUCCCCUCGGUAACGGCGAAUGGGACUCA,0.511
16,GGCCGGCAUGGUCCCAGCCUCCUCGCUGGCGCCGGCUGGGCAACAUUCCGAGGGGACCGUCCCCUCGGUAACGGCGAGUGGGACCCA,0.237
17,GGCCGGCAUGGUCCCAGCCUCCUCGCUGGCGCCGGCUGGGCAACAUUCCGAGGGGACCGUCCCCUCGGUAAGGGCGAAUGGGACGCA,0.609
18,GGCCGGCAUGGUCCCAGCCUCCUCGCUGGCGCCGGCUGGGCAACAUUCCGAGGGGACCGUCCCCUCGGUAAUCGCGAAUGGGACCUA,0.914
19,GGCCGGCAUGGUCCCAGCCUCCUCGCUGGCGCCGGCUGGGCAACAUUCCGAGGGGACCGUCCCCUCGGUAAUCGCGAAUGGGACUCA,0.415
20,GGCCGGCAUGGUCCCAGCCUCCUCGCUGGCGCCGGCUGGGCAACAUUCCGAGGGGACCGUCCCCUCGGUAAUCGCGAAUGGGACGCA,0.527
21,GGCCGGCAUGGUCCCAGCCUCCUCGCUGGCGCCGGCUGGGCAACAUUCCGAGGGGACCGUCCCCUCGGUAAUCGCGAGUGGGACCCA,0.237
22,GGCCGGCAUGGUCCCAGCCUCCUCGCUGGCGCCGGCUGGGCAACAUUCCGAGGGGACCGUCCCCUCGGUAAUAGCGAAUGGGACGCA,0.703

row,Variant,self-cleavage
1,GGCCGGCAUGGUCCCAGCCUCCUCGCUGGCGCCGGCUGGGCAACAUUCCGAGGGGACCGUCCCCUCGGUAAUAGCGAAUGGGAACCA,0.564
2,GGCCGGCAUGGUCCCAGCCUCCUCGCUGGCGCCGGCUGGGCAACAUUCCGAGGGGACCGUCCCCUCGGUAAAGGUGAAUGGGACCCA,0.199
3,GGCCGGCAUGGUCCCAGCCUCCUCGCUGGCGCCGGCUGGGCAACAUUCCGAGGGGACCGUCCCCUCGGUAAAGGGGAAUGGGACCCA,0.119
4,GGCCGGCAUGGUCCCAGCCUCCUCGCUGGCGCCGGCUGGGCAACAUUCCGAGGGGACCGUCCCCUCGGUAAUCGCAAAUGGGACCCA,0.604
5,GGCCGGCAUGGUCCCAGCCUCCUCGCUGGCGCCGGCUGGGCAACAUUCCGAGGGGACCGUCCCCUCGGUAACGGCCAAUGGGACCCA,0.779
6,GGCCGGCAUGGUCCCAGCCUCCUCGCUGGCGCCGGCUGGGCAACAUUCCGAGGGGACCGUCCCCUCGGUAACGGCUAAUGGGACCCA,1.01
7,GGCCGGCAUGGUCCCAGCCUCCUCGCUGGCGCCGGCUGGGCAACAUUCCGAGGGGACCGUCCCCUCGGUAACGGCAAAUGGGACCCA,0.962
8,GGCCGGCAUGGUCCCAGCCUCCUCGCUGGCGCCGGCUGGGCAACAUUCCGAGGGGACCGUCCCCUCGGUAAUAGCGAAUGGGCCCCA,0.198
9,GGCCGGCAUGGUCCCAGCCUCCUCGCUGGCGCCGGCUGGGCAACAUUCCGAGGGGACCGUCCCCUCGGUAAAGGCGGAUGGGACCCA,0.57
10,GGCCGGCAUGGUCCCAGCCUCCUCGCUGGCGCCGGCUGGGCAACAUUCCGAGGGGACCGUCCCCUCGGUAAGGGCGAAAGGGACCCA,0.534
11,GGCCGGCAUGGUCCCAGCCUCCUCGCUGGCGCCGGCUGGGCAACAUUCCGAGGGGACCGUCCCCUCGGUAAGGGCGAACGGGACCCA,0.297
12,GGCCGGCAUGGUCCCAGCCUCCUCGCUGGCGCCGGCUGGGCAACAUUCCGAGGGGACCGUCCCCUCGGUAACGACGAAUGGGACCCA,0.363
13,GGCCGGCAUGGUCCCAGCCUCCUCGCUGGCGCCGGCUGGGCAACAUUCCGAGGGGACCGUCCCCUCGGUAACGCCGAAUGGGACCCA,0.26
14,GGCCGGCAUGGUCCCAGCCUCCUCGCUGGCGCCGGCUGGGCAACAUUCCGAGGGGACCGUCCCCUCGGUAAUAGCGAAUGGCACCCA,0.172
15,GGCCGGCAUGGUCCCAGCCUCCUCGCUGGCGCCGGCUGGGCAACAUUCCGAGGGGACCGUCCCCUCGGUAUCGGCGAAUGGGACCCA,0.57
16,GGCCGGCAUGGUCCCAGCCUCCUCGCUGGCGCCGGCUGGGCAACAUUCCGAGGGGACCGUCCCCUCGGUAUAGGCGAAUGGGACCCA,0.969
17,GGCCGGCAUGGUCCCAGCCUCCUCGCUGGCGCCGGCUGGGCAACAUUCCGAGGGGACCGUCCCCUCGGUAACGGCGCAUGGGACCCA,0.246
18,GGCCGGCAUGGUCCCAGCCUCCUCGCUGGCGCCGGCUGGGCAACAUUCCGAGGGGACCGUCCCCUCGGUAACGGCGAAUGGGCCCCA,0.332
19,GGCCGGCAUGGUCCCAGCCUCCUCGCUGGCGCCGGCUGGGCAACAUUCCGAGGGGACCGUCCCCUCGGUAACGGCGAAUGGGUCCCA,0.128
20,GGCCGGCAUGGUCCCAGCCUCCUCGCUGGCGCCGGCUGGGCAACAUUCCGAGGGGACCGUCCCCUCGGUAAAGGCGAAUUGGACCCA,0.251
